The text below walks through data of the DeepSol protein solubility set.

This data set in a line: soluble on expression in E. coli; label from the status in PepcDB or PDB records.
As for “MRIIETIEEMKKFSEEMREKKKTIGFVPTMGYLHEGHLSLVRRARAENDVVVVSIFVNPTQFGPNEDYERYPRDFERDRKLLEKENVDCIFHPSVEEMYPPDFSTYVEETKLSKHLCGRSRPGHFRGVCTVVTKLFNIVKPHRAYFGQKDAQQFRVLRRMVRDLNMDVEMIECPIVREPDGLAMSSRNVYLSPEERQQALSLYQSLKIAENLYLNGERDAEKIKEEMIKHLSRFDKVKIDYVEIVDEETLEPVEKIDRKVIVAVAAWVGNARLIDNTILG”, the “soluble on expression in E. coli” value is reported as “soluble”. As for “MTLWDRLSRLVRANLNDLLRRAEDPEKIIEQALLDMKQALREAREQVAEALAEQKRLEREVESHEREAALWEEKAREALKAGREDLAREALRRKKRALDLAEGFKAQLSEHKALTERLMTQLKALEAKIDEAEARKKLLLARKKGVEAAETVRRMESRLDQHPALEAFEEMEARILAMEDRHQALEALDQADLEKEFQALSAEKEVEEDLLRLKRELGQAAAALEHHHHHH”, the entry is “not soluble”; as for “MGSDKIHHHHHHMDVLQKEIDEVYATHPTAHEALDNGIVEQHQQFVRSLTEVNGGCAVISDLSNRKSYVTVHPWANFLGLTPEEAALSVIDSMDEDCIYRRIHPEDLVEKRLMEYKFFQKTFSMSPGERLKYRGRCRLRMMNEKGVYQYIDNLVQIMQNTPAGNVWLIFCLYSLSADQRPEQGIYATITQMERGEVETLSLSEEHRNILSEREKEILRCIRKGLSSKEIAATLYISVNTVNRHRQNILEKLSVGNSIEACRAAELMKLL”, “not soluble”. Take “MSLSQDGLLGEVLSEGVLTLTLGRAPAHPLSRAMIAALHDALRRAMGDDHVHVLVIHGPGRIFCAGHDLKEIGRHRADPDEGRAFVTDLFEACSALMLDLAHCPKPTIALVEGIATAAGLQLMAACDLAYASPAARFCLPGVQNGGFCTTPAVAVSRVIGRRAVTEMALTGATYDADWALAAGLINRILPEAALATHVADLAGALAARNQAPLRRGLETLNRHLELPLEQAYALATPVMVEHFMDPGRRHLDWIDEGHHHHHH”: the “soluble on expression in E. coli” value is “soluble”. “MDGDFRTSFVREPAGLRPYPALVLNADYRPLSYYPLSLWPWQEAIKAAFLDRVSIVAEYDQVVRSQRAALRIPSVVVLKEFVSPQKRVAFTRFNLFLRDEFRCQYCGAKGDLTFDHVVPRARGGVTSWQNVVAACSPCNLHKGSKTLKQAGMRLARIPREPTPAEMQRHGQRFPPNHLHDSWLDYLYWDAELEALEHHHHHH”: the “soluble on expression in E. coli” value is “not soluble”. Take “MAHHHHHHMWINKIGNKSASFINHKHFHPGNIKNLERVWLAEENEKKRKEEEEKYLKKREEQYKLYELKKQLRKNEEENKNDVHNILYDINNELKKENSFKKKILHNSISNETTPNENIVNKILIRSKYDEDIFLKNHRSIYGSYYDKEKNKWGFKCCTNIDKNSKCTNNTNCSYNLNNNLIKKDLTKSKNKKKKKKKLIVDNSITAVLNKI”: the “soluble on expression in E. coli” value is recorded as “not soluble”. As for “MGSDKIHHHHHHMVVIEFKNVSKHFNLYKNKSYSLKEKFLNKVLNRNKLEVEQLHVLKNASFKIGQGETIGIIGENGTGKSTSLKLVANIIRPNEGQVTVKGKISSLLEVGVGFQPDMTGRENVYLYGSIMGLSKKEIDERYDEIVEFAELENFMDTPVKNYSSGMYMRLGFSVAVTVNPDILLVDEVLAVGDANFQKKCLNKIQAFKEQGKTILFVSHDMSTVRRICDRCIFIRKGGEVIEGSTDRMVGLYMKLLYAKSEEHKKEEQKSEESLADFDFKLHEADEFKDGNREGNKKLEITKLYFSDKEGRPRNFFGTEENIKVNVEFRKNTDIKAAVMAFEIITEEGYKLIYHDCKQDGMLITEMKDTNMVSFSLQNELLLKSKYYFSIALMDENLQEIYDFRHKHYWFTIHEGNIKEDGKVKISCDWML”, the “soluble on expression in E. coli” value was “not soluble”.

In the case of “MSGCPFAGNSVGYTLKNVSMEDNEEDRAQTGVNRASKGGLIYGNYLQLEKILNAQELQSEVKGNKIHDEHLFIITHQAYELWFKQILWELDSVREIFQNGHVRDERNMLKVIARMHRVVVIFKLLVQQFSVLETMTALDFNDFREYLSPASGFQSLQFRLLENKIGVLQSLRVPYNRKHYRDNFGGDYNELLLKSEQEQTLLQLVEAWLERTPGLEPNGFNFWGKFEKNILKGLEEEFLRIQAKTDSEEKEEQMAEFRKQKEVLLCLFDEKRHDYLLSKGERRLSYRALQGALMIYFYREEPRFQVPFQLLTSLMDIDTLMTKWRYNHVCMVHRMLGTKAGTGGSSGYHYLRSTVSDRYKVFVDLFNLSTYLVPRHWVPKMNPIIHKFLYTAEYSDSSYFSSDESD”, the “soluble on expression in E. coli” value is “soluble”.

Regarding “MSLRVTEPEMDQNLRDAIRMVINELTSSSGEVSQWTLREITARYRNLYRIKDPFVLDYYINRYMSGLRSVYPLYINDAIERIMSNGYDRPVIVQYNGKYYETNITLKREDLDSIAIRVSQMMGKKISSGSPIAYGNLQNFRSIVTFGDDVTPFGSSLYLERRHVVADPEAMSSMKDPMVSAYLIMALENMRSIMIIGPDSPMKIAIIYHLIRMIGSEKKIAYIGENGRFDFPRNIVYMMPRERTVFSSEISRTDLINTALRQRPDFIVVNGLTARELPAAVQAITTGHPTLSSMDIDSIENFSSLFSDPSTGLSKDMISLFDVVIEIADNGEYVKAIYEYDRLEGQEVLYNVPFSADRKRKLVFSGYSGIFRRMSKVIGEDSFRQALENRMKELDGGEGHHHHHH”, the “soluble on expression in E. coli” value was “soluble”. As to “MKPSLRIYRYPPPPSQRTPCALTIGNFDGVHLGHQAILARVRQEARARGLVPAVMTFEPHPREYFATLNRRPELAPTRISGLRDKLQALAAAGIEQVAVERFDARLAEMSANAFIEDLLVAGLQTRWLLVGEDFRYGHKRSGDIDLLREAGLAHGFEVCTLADITDRQGHRISSSEVRTALAVGDLDRAAQLLGQPFHISGHVIHGRKLGRELGFPTMNLRVAPRCATRSGIYVVRVLGLQDRPLPAVASLGVRPTVEDRGRVLLEAHLLDESLDAYGKLVRVEFLHKLRDEEKFADLPSLTAAIAQDAQNARAYFAVHGL”, the “soluble on expression in E. coli” value is listed as “not soluble”. As for “MSSSQELRSNFYREKNLMETVFDALKAMGKATSIELAARLDISREEVLNELWELKKAGFVDKSAYTWRVADNNVQQEQPAQAELPEEITTATVAKISECDLTATIEQRGPQTADELATLFGTTSRKVASTLAMAISKGRLIRVNQGGKFRYCIPGDNLPAEPKAASVSPLWLSASSSACHGVLIITVITPSPTKNSATKMPENLEHHHHHH”, the entry is “not soluble”; as for “MSLENCKKVNYERVEKERESGSSISIRNFKREAYDSSGQLQWELRANESFVYVNENKTTFYDIDFDQYEAGKFKSKLLAEKGEINHKTRLMLLEGKILLKTDDHKILTAKTMEYNMDTKKLVSDSEVSVSADGTTIRGIGLRADKDLNKFTILKPTAITQGGTNPLKAAGSPEGHHHHHH”, “soluble”; as for “SDHGSNEIDRHLTPGASPAYIGINKEKKLLYTANYHTAVLSVFQYSNSGKLALVAQTTHKAESLGPRPEQVDGPHPHFFDETPAGNLVSCDLGNDTVDFYRLENNELKHLAQYKNEAGFGDRHIVFSKDGNYFYVVGELSSQINVVKFNENTWEFEDIATYKTIPEDFTEHNGAAALYITNDGKYIYNSNRGHNSITVFKVNDDHTLSLIQRISTFGDFPRDFNWDETQKYVVAANQNT”, “soluble”. The same measure for “MIKRNLLVMGLAVLLSACGFQLRGTGTQELSIKELDLSARDAYGTTIKMLKQQLESSGVRVHAGAPYKLVLLSEENSQRTLSYTGGGNSAEYEIGTTLRYEILTHDNLHLLDDKLEVQKVFLHDGNNITGSDQESSETRKEMRRDLIQRMLIRLQLLTPEQLAQLQATAEAKAKAEADALEAARKAEAETPQQSPMELPNQLEHHHHHH”: “soluble”. Regarding “MGSSHHHHHHSSGLVPRGSHMASMTGGQQGRDPFESYNPEFFLYDIFLKFCLKYIDGEICHDLFLLLGKYNILPYDTSNDSIYACTNIKHLDFINPFGVAAGFDKNGVCIDSILKLGFSFIEIGTITPRGQTGNAKPRIFRDVESRSIINSCGFNNMGCDKVTENLILFRKRQEEDKLLSKHIVGVSIGKNKDTVNIVDDLKYCINKIGRYADYIAINVSSPNTPGLRDNQEAGKLKNIILSVKEEIDNLEKNNIMNDEFLWFNTTKKKPLVFVKLAPDLNQEQKKEIADVLLETNIDGMIISNTTTQINDIKSFENKKGGVSGAKLKDISTKFICEMYNYTNKQIPIIASGGIFSGLDALEKIEAGASVCQLYSCLVFNGMKSAVQIKRELNHLLYQRGYYNLKEAIGRKHSKS”, the “soluble on expression in E. coli” value is reported as “soluble”. Regarding “MGSDKIHHHHHHMHILIYSYNYHPEPIGIAPLMTELAEGLVNRGHEVRVITGMPNYPEREIYDGYRGQWYVTEQKNGVTIQRSYIRIKSKPNLLDRLLLELSFIFTSLPQAFRGERPDVMILTVPPLLGILPATIFGWLYNCPIVLNVQDILPEAAVRIGLLKNKWMIRTLAALEKFAYRTAHTISVIADGFRENLVNKGVPVNKIVCIPNWVNVNFIHPLPKQNNSWISSHQLDGKFIVLYSGNIALTQGLETVIEAAVCLRHIKEIVFVIVGESRALQRLQEYCLLHGADNVLLLPLQPREKLPEMLAAADVGLIVQKRNIISFNMPSKIPLLLASGRPIVGSVPATGTAARAIKLSGGGIIVEPESPDAMAAAVHDLYANPTFCTRLGNAGRQFAEENYSLEQALDRYEWLFYHILANRKSNVGILPKLDSKESVVDA”, the “soluble on expression in E. coli” value is recorded as “not soluble”. In the case of “MGSDKIHHHHHHMSPDVDIKALRCFLALAQELSFGRAAERMNLTQPSLSAQIRKLEDQVGHRLFERTTRAVHLSPTGKALIEQARTFVSQADAFAAHLSAWRERPDRRMVLGAPIYTFELPEHGALLSAIARELPDMSLRVDNGFANSLVEGLIKGSVDMAMVVAAAVPHDRYLADMAGEGAGELEMPDGLQRITLSDEQIGLAIPEEHPLASYDIVPPEALSGSVIAMLAPLHGRSLYRPISVWLSAAGATGFLPPEAHAFALERYCREYRIPAISIAQFRPRETGNVVYRPAGGLNVRTELAVLRSTRKQRSSIEERLWDLASSLGR”, the “soluble on expression in E. coli” value is “not soluble”. As for “MGHHHHHHSHMQTDIHDEPVNLGFGVQFEPDDLYRLRSQFLPLGKIGGKPSWLNPKNLPKSADLLCNVCEKPLCFLMQVSANGGINDPPHAFHRSLFLFVCRNPSCSRTNDAANLKAFRCQLPRANDYYSFDGPMDPDLDGDVADPRAPADGPGLCRICGCSAAKKCAKCQVARYCSQAHQVIDWPAHKLECAKAATDGSITDEPKNPRNAFCFKEFGVEIDQEYMPANLFDGLSDDEGDEEEEEGNDEDETEEEKKARIREFEKFVKENKGKNADMTKEDLDEATAEQPKDIDFDKFNRLVNLQPDQIIRYKRYGQPLRATGLSELPEVVEPCELCGAPRRFEMQLMPHLLSLIDVDAIGQSIDWASVYVYTCSASCQIADDGYAKEFVAKQDFL”, the entry is “soluble”.

“MDSDSGEQSEGELSPGHESFNSKSLALQAQKKILSKMATMAVANLLTDDTSSEILDELYKASREYTKSKKEAHKIIKDVIKIALKIGILYRNHQFSPEEMETVERFKKKMNQAAMTVVSFYEVEYTFDRGILSELLLECRDLLHELVEHHLTMRSHGRIDHVFNHFADVDFLTELYGPSEDYRLNLRKICDGINKLLDEGTL”: the “soluble on expression in E. coli” value is recorded as “not soluble”. As for “MSLKKIILSIILISNYCYASDCFEITGKAYNIDPLILKAIAWNESKCKSGIKSKTNKNGTYDIGIMQINSSHLDLLSKFNISEDDLLNDACINISVAGYILASNIKSRGNTWDAVGAYNAGYFNTPNAVELRRQYAMKIYKTYNKLKNNEQIIDEGHHHHHH”, the “soluble on expression in E. coli” value was “not soluble”. With “NQKMIASAFNNALGAIQDGFDATNSALGKIQSVVNANAEALNNLLNQLSLVPRGSGGSGGSGGLNVTLLDLTYEMNRIQDAIKKLNESYINLKE”, the “soluble on expression in E. coli” value was “soluble”.
